Patent publication US20190194323A1 (ALLAKOS, published 2019)

Biological target: T1, Siglec-7-ECD (human, UniProt Q9Y286 19-353)
T1 construct: also called p75; AIRM
Experiment: monovalent Fab; bio-layer interferometry (ForteBio) per Methods

T1 sequence (Q9Y286 19-353 limits assumed): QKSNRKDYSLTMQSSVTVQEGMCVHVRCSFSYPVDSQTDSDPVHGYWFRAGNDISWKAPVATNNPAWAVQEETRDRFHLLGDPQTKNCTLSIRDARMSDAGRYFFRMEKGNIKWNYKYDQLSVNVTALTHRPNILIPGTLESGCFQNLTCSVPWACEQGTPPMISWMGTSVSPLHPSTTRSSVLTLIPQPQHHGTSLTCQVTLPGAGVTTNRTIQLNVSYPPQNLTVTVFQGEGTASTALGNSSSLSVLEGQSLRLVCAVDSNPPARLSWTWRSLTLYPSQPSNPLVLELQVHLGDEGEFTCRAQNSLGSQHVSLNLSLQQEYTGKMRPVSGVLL

| Binder | Kd |
| --- | --- |
| humanized 16H11-derived Fab, VH AK446-7 / VL AK418-2 (Fab, V domains shown, Measured as monovalent Fab; also called No. 33; AK446-7/AK418-2) VH: QVQLVQSGAEVKKPGSSVKVSCKASGYDFSNFWMNWVRQAPGQGLEWMGQIYPGDGEIKYNQKFQGRVTITADESTSTAYMELSSLRSEDTAVYYCARDDYLRAMDIWGQGTMVTVSS VL: DIQMTQSPSSLSASVGDRVTITCRASGNIHNYLAWYQQKPGKAPKFLLYSAKRLESGVPSRFSGSGSGTDYTLTISSLQPEDFATYYCQHFWSSPYTFGGGTKVEIK | < 0.075 nM |
| humanized 16H11-derived Fab, VH AK447-2 / VL AK448-3 (Fab, V domains shown, Measured as monovalent Fab; also called No. 27) VH: QVQLVQSGAEVKKPGSSVKVSCKASGYDFSNFWMNWVRQAPGQGLEWMGQIYPGDGEINYNQKFQGRVTITADESTSTAYMELSSLRSEDTAVYYCARDDYLRAMDIWGQGTMVTVSS VL: DIQMTQSPSSLSASVGDRVTITCRASQNIHNYLAWYQQKPGKAPKFLLYSAKRLESGVPSRFSGSGSGTDYTLTISSLQPEDFATYYCQHFWSSPYTFGQGTKLEIK | 0.075 to 0.15 nM |
| humanized 16H11-derived Fab, VH AK417-17 / VL AK421-3 (Fab, V domains shown, Measured as monovalent Fab; also called No. 5) VH: QVQLVQSGAEVKKPGSSVKVSCKASGYDFSNFWMNWVRQAPGQGLEWMGGIYPGDGEINYAQKFQGRVTITADESTSTAYMELSSLRSEDTAVYYCARDDYLRAMDIWGQGTMVTVSS VL: DIQMTQSPSSLSASVGDRVTITCRASGNIHNYLAWYQQKPGKAPKFLLYSAKRLESGVPSRFSGSGSGTDYTLTISSLQPEDFATYYCQHFWSSPYTFGQGTKLEIK | 0.25 to 0.5 nM |
| humanized 16H11-derived Fab, VH AK417-8 / VL AK439-5 (Fab, V domains shown, Measured as monovalent Fab; also called No. 22) VH: QVQLVQSGAEVKKPGSSVKVSCKASGYDFSNFWMNWVRQAPGQGLEWMGGIYPGDGEINYAQKFQGRVTITADESTSTAYMELSSLRSEDTAVYYCARDDYLRAMDVWGQGTMVTVSS VL: DIQMTQSPSSLSASVGDRVTITCRASQNIHNYLAWYQQKPGKAPKFLLYSAKRLEDGVPSRFSGSGSGTDYTLTISSLQPEDFATYYCQHFWSSPYTFGQGTKLEIK | 0.25 nM |
| humanized 16H11-derived Fab, VH AK410-1 / VL AK418-2 (Fab, V domains shown, Measured as monovalent Fab; also called No. 1; AK410-1/AK418-2) VH: QVQLVQSGAEVKKPGSSVKVSCKASGYDFSNFWMNWVRQAPGQGLEWMGGIYPGDGEINYAQKFQGRVTITADESTSTAYMELSSLRSEDTAVYYCARDDYLRAMDYWGQGTLVTVSS VL: DIQMTQSPSSLSASVGDRVTITCRASGNIHNYLAWYQQKPGKAPKFLLYSAKRLESGVPSRFSGSGSGTDYTLTISSLQPEDFATYYCQHFWSSPYTFGGGTKVEIK | 0.25 to 0.5 nM |
| humanized 16H11-derived Fab, VH AK447-2 / VL AK418-2 (Fab, V domains shown, Measured as monovalent Fab; also called No. 26) VH: QVQLVQSGAEVKKPGSSVKVSCKASGYDFSNFWMNWVRQAPGQGLEWMGQIYPGDGEINYNQKFQGRVTITADESTSTAYMELSSLRSEDTAVYYCARDDYLRAMDIWGQGTMVTVSS VL: DIQMTQSPSSLSASVGDRVTITCRASGNIHNYLAWYQQKPGKAPKFLLYSAKRLESGVPSRFSGSGSGTDYTLTISSLQPEDFATYYCQHFWSSPYTFGGGTKVEIK | 0.075 to 0.15 nM |
| humanized 16H11-derived Fab, VH AK417-17 / VL AK424-1 (Fab, V domains shown, Measured as monovalent Fab; also called No. 7) VH: QVQLVQSGAEVKKPGSSVKVSCKASGYDFSNFWMNWVRQAPGQGLEWMGGIYPGDGEINYAQKFQGRVTITADESTSTAYMELSSLRSEDTAVYYCARDDYLRAMDIWGQGTMVTVSS VL: DIQMTQSPSSLSASVGDRVTITCRASGNIHNYLAWYQQKPGKAPKLLLYSAKRLASGVPSRFSGSGSGTDYTLTISSLQPEDFATYYCQHFWSSPYTFGGGTKVEIK | > 0.5 nM |
| humanized 16H11-derived Fab, VH AK446-7 / VL AK419-2 (Fab, V domains shown, Measured as monovalent Fab; also called No. 37) VH: QVQLVQSGAEVKKPGSSVKVSCKASGYDFSNFWMNWVRQAPGQGLEWMGQIYPGDGEIKYNQKFQGRVTITADESTSTAYMELSSLRSEDTAVYYCARDDYLRAMDIWGQGTMVTVSS VL: DIQMTQSPSSLSASVGDRVTITCRASQNIHNYLAWYQQKPGKAPKFLLYSAKRLESGVPSRFSGSGSGTDYTLTISSLQPEDFATYYCQHFWSSPYTFGGGTKVEIK | > 0.5 nM |
| humanized 16H11-derived Fab, VH AK417-17 / VL AK439-5 (Fab, V domains shown, Measured as monovalent Fab; also called No. 21) VH: QVQLVQSGAEVKKPGSSVKVSCKASGYDFSNFWMNWVRQAPGQGLEWMGGIYPGDGEINYAQKFQGRVTITADESTSTAYMELSSLRSEDTAVYYCARDDYLRAMDIWGQGTMVTVSS VL: DIQMTQSPSSLSASVGDRVTITCRASQNIHNYLAWYQQKPGKAPKFLLYSAKRLEDGVPSRFSGSGSGTDYTLTISSLQPEDFATYYCQHFWSSPYTFGQGTKLEIK | 0.25 to 0.5 nM |
| humanized 16H11-derived Fab, VH AK417-17 / VL AK426-2 (Fab, V domains shown, Measured as monovalent Fab; also called No. 9) VH: QVQLVQSGAEVKKPGSSVKVSCKASGYDFSNFWMNWVRQAPGQGLEWMGGIYPGDGEINYAQKFQGRVTITADESTSTAYMELSSLRSEDTAVYYCARDDYLRAMDIWGQGTMVTVSS VL: DIQMTQSPSSLSASVGDRVTITCRASQNIHNYLAWYQQKPGKAPKLLLYSAKRLASGVPSRFSGSGSGTDYTLTISSLQPEDFATYYCQHFWSSPYTFGGGTKVEIK | > 0.5 nM |
| humanized 16H11-derived Fab, VH AK417-17 / VL AK425-3 (Fab, V domains shown, Measured as monovalent Fab; also called No. 8) VH: QVQLVQSGAEVKKPGSSVKVSCKASGYDFSNFWMNWVRQAPGQGLEWMGGIYPGDGEINYAQKFQGRVTITADESTSTAYMELSSLRSEDTAVYYCARDDYLRAMDIWGQGTMVTVSS VL: DIQMTQSPSSLSASVGDRVTITCRASGNIHNYLAWYQQKPGKAPKLLLYSAKRLEDGVPSRFSGSGSGTDYTLTISSLQPEDFATYYCQHFWSSPYTFGGGTKVEIK | > 0.5 nM |
| humanized 16H11-derived Fab, VH AK440-2 / VL AK418-2 (Fab, V domains shown, Measured as monovalent Fab; also called No. 18; VH440-2 and VL418-2) VH: QVQLVQSGAEVKKPGSSVKVSCKGSGYDFSNFWMNWVRQAPGQGLEWMGQIYPGDGEIKYNQKFQGRVTITADESTSTAYMELSSLRSEDTAVYFCARDDYLRAMDYWGQGTLVTVSS VL: DIQMTQSPSSLSASVGDRVTITCRASGNIHNYLAWYQQKPGKAPKFLLYSAKRLESGVPSRFSGSGSGTDYTLTISSLQPEDFATYYCQHFWSSPYTFGGGTKVEIK | < 0.1 nM |
| humanized 16H11-derived Fab, VH AK449-4 / VL AK418-2 (Fab, V domains shown, Measured as monovalent Fab; also called No. 28) VH: QVQLVQSGAEVKKPGSSVKVSCKASGYDFSNFWMNWVRQAPGQGLEWMGGIYPGDGEIKYNQKFQGRVTITADESTSTAYMELSSLRSEDTAVYYCARDDYLRAMDIWGQGTMVTVSS VL: DIQMTQSPSSLSASVGDRVTITCRASGNIHNYLAWYQQKPGKAPKFLLYSAKRLESGVPSRFSGSGSGTDYTLTISSLQPEDFATYYCQHFWSSPYTFGGGTKVEIK | 0.075 to 0.15 nM |
| humanized 16H11-derived Fab, VH AK417-17 / VL AK427-1 (Fab, V domains shown, Measured as monovalent Fab; also called No. 10) VH: QVQLVQSGAEVKKPGSSVKVSCKASGYDFSNFWMNWVRQAPGQGLEWMGGIYPGDGEINYAQKFQGRVTITADESTSTAYMELSSLRSEDTAVYYCARDDYLRAMDIWGQGTMVTVSS VL: DIQMTQSPSSLSASVGDRVTITCRASQNIHNYLAWYQQKPGKAPKLLLYSAKRLEDGVPSRFSGSGSGTDYTLTISSLQPEDFATYYCQHFWSSPYTFGGGTKVEIK | > 0.5 nM |

More lines, now with the values ahead:

| Kd | Binder |
| --- | --- |
| < 0.075 nM | humanized 16H11-derived Fab, VH AK445-3 / VL AK418-2 (Fab, V domains shown, Measured as monovalent Fab; also called No. 25; VH445-3 and VL418-2) VH: QVQLVQSGAEVKKPGSSVKVSCKASGYDFSNFWMNWVRQAPGQGLEWMGQIYPGDGEIKYNQKFQGRVTLTADESTSTAYMELSSLRSEDTAVYYCARDDYLRAMDIWGQGTMVTVSS VL: DIQMTQSPSSLSASVGDRVTITCRASGNIHNYLAWYQQKPGKAPKFLLYSAKRLESGVPSRFSGSGSGTDYTLTISSLQPEDFATYYCQHFWSSPYTFGGGTKVEIK |
| < 0.075 nM | humanized 16H11-derived Fab, VH AK446-7 / VL AK448-3 (Fab, V domains shown, Measured as monovalent Fab; also called No. 34; AK446-7/AK448-3) VH: QVQLVQSGAEVKKPGSSVKVSCKASGYDFSNFWMNWVRQAPGQGLEWMGQIYPGDGEIKYNQKFQGRVTITADESTSTAYMELSSLRSEDTAVYYCARDDYLRAMDIWGQGTMVTVSS VL: DIQMTQSPSSLSASVGDRVTITCRASQNIHNYLAWYQQKPGKAPKFLLYSAKRLESGVPSRFSGSGSGTDYTLTISSLQPEDFATYYCQHFWSSPYTFGQGTKLEIK |
| < 0.075 nM | humanized 16H11-derived Fab, VH AK441-2 / VL AK418-2 (Fab, V domains shown, Measured as monovalent Fab; also called No. 19; VH441-2 and VL418-2) VH: QVQLVQSGAEVKKPGSSVKVSCKGSGYDFSNFWMNWVRQAPGQGLEWMGQIYPGDGEIKYNQKFQGRVTLTADESTSTAYMELSSLRSEDTAVYYCARDDYLRAMDIWGQGTMVTVSS VL: DIQMTQSPSSLSASVGDRVTITCRASGNIHNYLAWYQQKPGKAPKFLLYSAKRLESGVPSRFSGSGSGTDYTLTISSLQPEDFATYYCQHFWSSPYTFGGGTKVEIK |
| < 0.1 nM | humanized 16H11-derived Fab, VH AK449-4 / VL AK448-3 (Fab, V domains shown, Measured as monovalent Fab; also called No. 29; VH449-4 and VL448-3) VH: QVQLVQSGAEVKKPGSSVKVSCKASGYDFSNFWMNWVRQAPGQGLEWMGGIYPGDGEIKYNQKFQGRVTITADESTSTAYMELSSLRSEDTAVYYCARDDYLRAMDIWGQGTMVTVSS VL: DIQMTQSPSSLSASVGDRVTITCRASQNIHNYLAWYQQKPGKAPKFLLYSAKRLESGVPSRFSGSGSGTDYTLTISSLQPEDFATYYCQHFWSSPYTFGQGTKLEIK |
| < 0.075 nM | humanized 16H11-derived Fab, VH AK444-2 / VL AK418-2 (Fab, V domains shown, Measured as monovalent Fab; also called No. 24; VH444-2 and VL418-2) VH: QVQLVQSGAEVKKPGSSVKVSCKASGYDFSNFWMNWVRQAPGQGLEWMGQIYPGDGEIKYNQKFQGRVTITADESTSTAYMELSSLRSEDTAVYFCARDDYLRAMDYWGQGTLVTVSS VL: DIQMTQSPSSLSASVGDRVTITCRASGNIHNYLAWYQQKPGKAPKFLLYSAKRLESGVPSRFSGSGSGTDYTLTISSLQPEDFATYYCQHFWSSPYTFGGGTKVEIK |
| < 0.075 nM | humanized 16H11-derived Fab, VH AK387-11 / VL AK418-2 (Fab, V domains shown, Measured as monovalent Fab; also called No. 32; VH387-11 and VL418-2) VH: QVQLVQSGAEVKKPGSSVKVSCKGSGYDFSNFWMNWVRQAPGQGLEWMGQIYPGDGEIKYNQKFQGRVTLTADESTSTAYMELSSLRSEDTAVYFCARDDYLRAMDYWGQGTLVTVSS VL: DIQMTQSPSSLSASVGDRVTITCRASGNIHNYLAWYQQKPGKAPKFLLYSAKRLESGVPSRFSGSGSGTDYTLTISSLQPEDFATYYCQHFWSSPYTFGGGTKVEIK |
| < 0.075 nM | humanized 16H11-derived Fab, VH AK443-1 / VL AK418-2 (Fab, V domains shown, Measured as monovalent Fab; also called No. 23; VH443-1 and VL418-2) VH: QVQLVQSGAEVKKPGSSVKVSCKGSGYDFSNFWMNWVRQAPGQGLEWMGQIYPGDGEIKYNQKFQGRVTITADESTSTAYMELSSLRSEDTAVYYCARDDYLRAMDIWGQGTMVTVSS VL: DIQMTQSPSSLSASVGDRVTITCRASGNIHNYLAWYQQKPGKAPKFLLYSAKRLESGVPSRFSGSGSGTDYTLTISSLQPEDFATYYCQHFWSSPYTFGGGTKVEIK |
| < 0.075 nM | humanized 16H11-derived Fab, VH AK438-4 / VL AK418-2 (Fab, V domains shown, Measured as monovalent Fab; also called No. 17; VH438-4 and VL418-2) VH: QVQLVQSGAEVKKPGSSVKVSCKASGYDFSNFWMNWVRQAPGQGLEWMGQIYPGDGEIKYNQKFQGRVTLTADESTSTAYMELSSLRSEDTAVYFCARDDYLRAMDYWGQGTLVTVSS VL: DIQMTQSPSSLSASVGDRVTITCRASGNIHNYLAWYQQKPGKAPKFLLYSAKRLESGVPSRFSGSGSGTDYTLTISSLQPEDFATYYCQHFWSSPYTFGGGTKVEIK |
